This test deals with c-Met receptor (human) (UniProt P08581). Put plainly: cell-based or functional assay.

We go through two molecules from patent publication US20110263830A1.

Bounds are passed on as bounds.

Sequence of UniProt P08581 (P08581 25-1390): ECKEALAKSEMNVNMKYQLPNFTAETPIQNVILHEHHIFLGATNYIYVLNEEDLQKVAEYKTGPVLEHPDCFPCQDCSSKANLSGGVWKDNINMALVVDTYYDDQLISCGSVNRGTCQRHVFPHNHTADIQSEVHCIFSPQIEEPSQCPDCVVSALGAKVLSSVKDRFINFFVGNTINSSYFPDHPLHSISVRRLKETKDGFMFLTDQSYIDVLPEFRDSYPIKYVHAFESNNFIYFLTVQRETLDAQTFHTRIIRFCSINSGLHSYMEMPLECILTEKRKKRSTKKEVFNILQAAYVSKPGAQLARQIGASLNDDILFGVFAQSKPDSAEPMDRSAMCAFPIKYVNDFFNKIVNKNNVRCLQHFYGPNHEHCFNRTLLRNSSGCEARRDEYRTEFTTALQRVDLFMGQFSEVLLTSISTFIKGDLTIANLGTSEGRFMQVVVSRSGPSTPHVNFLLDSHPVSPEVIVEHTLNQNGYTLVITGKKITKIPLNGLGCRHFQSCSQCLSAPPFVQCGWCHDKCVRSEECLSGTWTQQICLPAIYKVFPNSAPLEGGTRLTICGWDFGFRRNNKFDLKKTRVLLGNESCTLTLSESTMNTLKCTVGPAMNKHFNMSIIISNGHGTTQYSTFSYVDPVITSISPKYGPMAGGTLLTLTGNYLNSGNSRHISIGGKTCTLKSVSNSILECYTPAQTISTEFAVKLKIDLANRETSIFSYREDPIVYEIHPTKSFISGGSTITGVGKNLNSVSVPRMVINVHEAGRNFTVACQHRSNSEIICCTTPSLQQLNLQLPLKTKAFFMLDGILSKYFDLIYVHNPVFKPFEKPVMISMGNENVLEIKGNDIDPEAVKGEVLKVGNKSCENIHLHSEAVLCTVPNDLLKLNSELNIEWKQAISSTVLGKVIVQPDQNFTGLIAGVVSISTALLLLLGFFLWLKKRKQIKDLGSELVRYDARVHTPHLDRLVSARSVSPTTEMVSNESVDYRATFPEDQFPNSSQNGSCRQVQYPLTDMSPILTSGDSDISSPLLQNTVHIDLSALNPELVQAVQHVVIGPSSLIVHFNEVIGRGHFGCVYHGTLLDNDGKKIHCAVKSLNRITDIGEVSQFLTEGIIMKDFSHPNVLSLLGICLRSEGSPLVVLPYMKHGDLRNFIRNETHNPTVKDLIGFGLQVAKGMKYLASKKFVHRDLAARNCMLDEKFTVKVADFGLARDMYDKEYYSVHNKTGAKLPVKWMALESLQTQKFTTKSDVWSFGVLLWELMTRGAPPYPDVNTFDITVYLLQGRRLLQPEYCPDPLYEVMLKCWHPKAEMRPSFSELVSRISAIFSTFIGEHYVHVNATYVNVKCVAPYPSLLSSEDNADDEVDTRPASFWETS

B1: murine 227H1 Mab (antibody, from another filing, mouse IgG1, V domains shown)
VH: EVQLQQSGPELVKPGASMKISCKASGYSFTDYTLNWVKQSHGKTLEWIGLINPYNGGTTYNQKFKGKATLTVDKSSSTAYMELLSLTSEDSAVYYCAREEITKDFDFWGQGTTLTVSS
VL: GIVLTQSPASLAVSLGQRATISCRVSESIDTYGNSFIHWYQQKPGQPPKLLIYRASNLESGIPARFSGSGSRTDFTLTINPVEADDSATYYCQQSNEDPFTFGSGTKLEMK
Take B1: the agonist effect on c-Met receptor phosphorylation, A549 cells (phospho-c-Met ELISA) (% of HGF effect) is less than 5; the inhibition of HGF [100 ng/ml]-induced c-Met receptor phosphorylation, A549 cells (% inhibition of HGF effect) was more than 70; the inhibition of HGF-induced proliferation of NCI-H441 cells ([3H]Thymidine) came to 80 % inhibition.

B2: murine 11E1 Mab (antibody, from another filing, mouse IgG1, V domains shown)
VH: QVQLQQSGAELAKPGASVKMSCKASGYTFTSYWMNWVKQRPGQGLEWIGYINPTTGSTDYNQKLKDKATLTADKSSNTAYMQLSSLTSEDSAVYYCAIGGYGSWFAYWGQGTLVTVSA
VL: QIVLTQSPAIMSASPGEKVTLTCSASSSVSSTYLYWYQQKPGSSPKLWIYTTSILASGVPARFSGSGSGTSYSLTISSMETEDAASYFCHQWSSYPFTFGSGTKLDIK
In the case of B2, the agonist effect on c-Met receptor phosphorylation, A549 cells (phospho-c-Met ELISA) (% of HGF effect) is less than 5; the inhibition of HGF [100 ng/ml]-induced c-Met receptor phosphorylation, A549 cells (% inhibition of HGF effect) was more than 70; the inhibition of HGF-induced proliferation of NCI-H441 cells ([3H]Thymidine) was 80 % inhibition.
